Measured values reported in patent WO2013015821A1.

How the values were obtained:
[1] = molecular target: human transcobalamin receptor (TCblR/CD320), full length, on cells (human) (UniProt Q9NPF0); assay: TC-[57Co]Cbl on normal and TCblR overexpressing HEK 293 cells, 1 hour at 37°C, surface counts released by trypsin/EDTA
[2] = molecular target: TCblR with the cytoplasmic tail deleted, membrane-anchored on HEK293 cells (human) (UniProt Q9NPF0); assay: TC-[57Co]Cbl on HEK293 cells expressing TCblR with the cytoplasmic tail deleted, surface counts released by trypsin/EDTA

Sequence of UniProt Q9NPF0 (Q9NPF0 36-282 limits assumed): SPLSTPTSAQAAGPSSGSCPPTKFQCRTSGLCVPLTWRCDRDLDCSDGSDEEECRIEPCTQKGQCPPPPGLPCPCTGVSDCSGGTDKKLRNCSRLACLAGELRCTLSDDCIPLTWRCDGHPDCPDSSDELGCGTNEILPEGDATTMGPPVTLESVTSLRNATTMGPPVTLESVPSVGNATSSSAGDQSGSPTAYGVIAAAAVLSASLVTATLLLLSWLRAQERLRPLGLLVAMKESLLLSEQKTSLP

B1: transcobalamin saturated with cobalamin (TC-Cbl) (ligand, human, UniProt P20062 19-427, looked up)
chain: EMCEIPEMDSHLVEKLGQHLLPWMDRLSLEHLNPSIYVGLRLSSLQAGTKEDLYLHSLKLGYQQCLLGSAFSEDDGDCQGKPSMGQLALYLLALRANCEFVRGHKGDRLVSQLKWFLEDEKRAIGHDHKGHPHTSYYQYGLGILALCLHQKRVHDSVVDKLLYAVEPFHQGHHSVDTAAMAGLAFTCLKRSNFNPGRRQRITMAIRTVREEILKAQTPEGHFGNVYSTPLALQFLMTSPMRGAELGTACLKARVALLASLQDGAFQNALMISQLLPVLNHKTYIDLIFPDCLAPRVMLEPAAETIPQTQEIISVTLQVLSLLPPYRQSISVLAGSTVEDVLKKAHELGGFTYETQASLSGPYLTSVMGKAAGEREFWQLLRDPNTPLLQGIADYRPKDGETIELRLVSW
modifications: cobalamin bound non-covalently ([57Co]Cbl in the radio assays)
Question: What does the source list for B1?
Answer: % of the radiolabel on the membrane [1]: 37 to 43%; % of the TCblR-bound radiolabel remaining on the cell surface [2]: 80%
